For assay [1], the target named is T1, pCGN3823 induced E. coli lysate (mature bay thioesterase) (Umbellularia californica, UniProt Q41635).
T1 construct: the entire mature bay thioesterase protein is expressed as a lac fusion in E. coli cells; made in house
T1 sequence (Q41635 84-382): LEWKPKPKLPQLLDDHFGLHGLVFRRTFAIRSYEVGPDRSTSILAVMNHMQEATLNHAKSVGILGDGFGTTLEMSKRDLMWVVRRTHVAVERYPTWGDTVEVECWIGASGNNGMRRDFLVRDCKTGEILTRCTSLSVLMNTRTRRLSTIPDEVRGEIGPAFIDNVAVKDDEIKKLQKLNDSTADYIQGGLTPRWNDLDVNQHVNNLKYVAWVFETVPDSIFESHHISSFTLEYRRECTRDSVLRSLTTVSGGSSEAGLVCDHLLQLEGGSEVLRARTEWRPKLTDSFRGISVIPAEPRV
The experiment in a line: Acyl-ACP hydrolysis by lysate of E. coli expressing mature bay thioesterase as lac fusion. In kind it is biochemical. The conditions noted are these: Dilution 1/4000, one hour induction with 0.1mM IPTG. On the procedure: (§1) To assay for C12 thioesterase activity the following mixture is incubated at 30° for 30 min: "buffer" comprising 7mM KH2PO4-KOH pH 8, 20% v/v glycerol, 1mM dithiothreitol (DTT), 0.1% v/v Triton X100; sample to be tested for activity in the same or similar buffer as the "extraction buffer" described in Example 2; and 5µl of ^14C-radiolabeled lauroyl-ACP substrate for a total volume of 100µl and final lauroyl-ACP concentration of 0.5µM. Lauroyl-ACP substrate is prepared according to the method of Rock et al (Methods in Enzymology (1981) 72:397-403), using ACP prepared from Escherichia coli by the method of Rock and Cronan (Methods in Enzymology (1981) 71:341-351). The laurate is radiolabeled in the carboxylate group at a specific radioactivity of 50-60µCi/µmol.
(§2) The reaction is stopped by adding 0.5ml cold (0°) 10% v/v acetic acid. The fatty acid product of the hydrolytic enzyme action is extracted away from the unhydrolyzed substrate by adding 1ml diethyl ether and mixing vigorously. After settling for a few minutes the upper ether layer is transferred to 5ml scintillation fluid for determination of radioactivity by liquid scintillation spectrometry. Additional ether extractions may be performed to recover remaining traces of the reaction product for more accurate quantitation of the enzyme activity if desired. The amount of ether-extracted radioactivity is a direct measure of C12-preferring acyl-ACP thioesterase activity, provided the amount of enzyme is not sufficient to hydrolyze more than about 25% of the substrate. With greater activity than this the relationship between radioactivity in the ether layer and the quantity of enzyme becomes markedly nonlinear. The enzyme preparation must then be diluted appropriately to bring the activity into the linear range of the assay.
In addition, the entire mature bay thioesterase protein is expressed as a lac fusion in E. coli cells. […] Digestion at this XbaI site cleaves the coding region immediately 5' of the codon representing the leucine at amino acid position 72. This leucine has been identified as a candidate for the amino terminal residue as described in Example 14A.
An approximately 1200 bp fragment of pCGN3822 cDNA is generated by digestion with XbaI, which cuts at the postulated mature protein start site, as described above, and in the vector sequences flanking the 3' end of the cDNA. The XbaI fragment is cloned on XbaI digest of the minus version of a Bluescribe M13(+/-) (also called pBS+/-) cloning vector (Stratagene; San Diego, CA.). The thioesterase gene clone is inserted such that the mature protein is in reading frame with a portion of the lacZ gene of the Bluescribe vector and under control of the lac promoter. […]

Assay [2] addresses T2, bay thioesterase enzyme purified from developing seeds (Umbellularia californica, UniProt Q41635).
T2 construct: The cotyledons from such seeds are dissected from the other seed parts and stored frozen at -70°; This comprises the source tissue for enzyme extraction; from tissue; host or cells: immature seed cotyledons of Umbellularia californica
T2 sequence (Q41635 84-382): T1 sequence (Q41635 84-382)
Briefly: Substrate analysis of bay thioesterase purified from developing seeds. In kind it is biochemical. The conditions noted are these: enzyme purified from developing seeds as in Example 2. On the procedure: as §1, §2
The dialyzed material is then applied to a column of immobilized ACP (2.5cm diameter x 10.5cm bed height). This column is manufactured by coupling Escherichia coli ACP to cyanogen bromide-activated Sepharose 4B according to instructions supplied by the manufacturer of this column packing (Pharmacia Inc., Piscataway, NJ). The E. coli ACP is prepared as referenced in Example 1. Before use the column is equilibrated with ACP1 buffer. The dialyzed material from the cation exchange column is applied at 1-1.3ml/min, and fractions of 8ml volume are collected throughout the procedure. Fractions are assayed for C12-preferring acyl-ACP thioesterase activity, and for total protein content using a Cobmassie Blue assay method (Bio-Rad Inc., Richmond, CA, catalog no. 500-0001). A substantial amount of protein washes through the column without binding. Almost all of the C12-preferring acyl-ACP thioesterase activity binds. […]

14:0-ACP: the entries for the “Hydrolysis Activity (mean cpm in ether extract)” value in assay [1] and in assay [2] were 116 cpm and 69 cpm, respectively.
For decanoyl-ACP [10:0-ACP] the same measures were 0 cpm and 0 cpm.
For 16:0-ACP the same measures were 20 cpm and 12 cpm.
Taken in the same sequence, the figures for lauroyl-ACP [12:0-ACP] were 1840 cpm and 1261 cpm.

The values above are taken from patent EP1298214A2, “Plant thioesterases” (Calgene LLC, priority 1990, dated 1991).
